± gives the standard deviation of the averaged measurements.
system: ATP; assay: switch fluorescence ratio, 500 uM ATP over buffer (Cy3 cluster intensity, sum of 5 cycles each) (fold (ratio)); higher = stronger signal-on switching upon ATP binding; sequences stand for … in TCGTCGGCAGCGTCAGATGTGTATAAGAGACAGTTTTTTTTTTTTTTTTTTTTTTTTT…TC; settings: aptamer strand: ATP DNA aptamer (quencher-CACCTGGGGGAGTATTGCGGAGGAAGG + anchor), 100 nM annealed; ATP concentration: 500 uM
How it was run: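 Values give the fluorescence ratio for each switch-domain sequence, averaged from per-cluster ratios of summed target-cycle to summed buffer-cycle Cy3 intensity. The Cy3-labelled switching-strand clusters sat on a modified Illumina MiSeq flow-cell, were annealed to 100 nM quencher-labelled ATP aptamer, and were imaged in selection buffer, then after 15 min with 500 uM ATP at 22 °C. Five cycles ran with NaOH stripping and re-annealing between them, and clusters outside 100-1000 RFU were excluded.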
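Also: ATP exposure 15 min at 22 °C before imaging.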

Sequence | switch fluorescence ratio
TGAGCGGATG | 0.994 ± 0.036
TGAGCGGGAG | 1.0564 ± 0.00029
TGAGCGGGGG | 0.996 ± 0.021
TGAGCTAAAT | 1.18 ± 0.31
TGAGCTATAT | 1.42 ± 0.077
TGAGCTCACG | 1.02 ± 0.027
TGAGCTTGGG | 0.99 ± 0.022
TGAGGAATGG | 0.9987 ± 0.0036
TGAGGATACA | 1.016 ± 0.0029
TGAGGATATA | 0.9887 ± 0.0059
TGAGGATGGG | 0.975 ± 0.026
TGAGGCCCCG | 0.991 ± 0.025
TGAGGCTATG | 1 ± 0.021
TGAGGCTGGG | 1.02 ± 0.054
TGAGGGATGA | 1.028 ± 0.0075
TGAGGGCAGC | 0.993 ± 0.026
TGAGGGCGAT | 1.033 ± 0.0019
TGAGGGGAGA | 1.02 ± 0.028
TGAGGGGAGG | 1.13 ± 0.15
TGAGGGGATG | 0.994 ± 0.023
TGAGGGGGG | 1.01 ± 0.022
TGAGGTAAGG | 0.997 ± 0.033
TGAGGTACTA | 0.999 ± 0.053
TGAGGTAGGG | 0.976 ± 0.053
TGAGGTTAGA | 1.03 ± 0.029

Sequence | switch fluorescence ratio
TGAGTAACGG | 1.02 ± 0.04
TGAGTAAGGA | 1.03 ± 0.034
TGAGTAAGGT | 0.995 ± 0.04
TGAGTAATAG | 2.01 ± 0.87
TGAGTAGCGT | 0.9631 ± 0.0063
TGAGTCGGGA | 1.01 ± 0.014
TGAGTCGTTG | 0.972 ± 0.01
TGAGTGCTCT | 0.9733 ± 0.0062
TGAGTGCTGC | 1.08 ± 0.075
TGAGTGCTGG | 0.9741 ± 0.0017
TGAGTGGACC | 0.992 ± 0.047
TGAGTGGGTC | 1.03 ± 0.013
TGAGTGTAGA | 1.07 ± 0.023
TGAGTTTCGG | 0.9869 ± 0.0098
TGATAAATTT | 1.01 ± 0.023
TGATAAGGGG | 1.01 ± 0.039
TGATACGCTA | 1.28 ± 0.23
TGATACGGGG | 1.01 ± 0.026
TGATAGAAGT | 1.01 ± 0.015
TGATAGAGTG | 1.01 ± 0.074
TGATAGCGGA | 1.03 ± 0.035
TGATAGGAAG | 1 ± 0.019
TGATAGTAT | 0.96 ± 0.037
TGATATGTGT | 0.973 ± 0.053
TGATCATACT | 1.035 ± 0.0046

Sequence | switch fluorescence ratio
TGATCATATG | 0.982 ± 0.068
TGATCATGTT | 0.984 ± 0.037
TGATCCAGGG | 0.9873 ± 0.0081
TGATCGGGGT | 1.02 ± 0.018
TGATCGTG | 1.01 ± 0.015
TGATCTGTCG | 0.9814 ± 0.0086
TGATGAAAAA | 1.01 ± 0.04
TGATGAAAGA | 0.996 ± 0.021
TGATGAAATG | 1.01 ± 0.049
TGATGAATGG | 0.9899 ± 0.0092
TGATGCAGAA | 1.036 ± 0.0041
TGATGCATAA | 1.04 ± 0.034
TGATGCTAGG | 1.01 ± 0.021
TGATGCTTTT | 1.01 ± 0.035
TGATGGATAA | 1.01 ± 0.027
TGATGGCCGG | 1.05 ± 0.04
TGATGGCTGC | 1.04 ± 0.013
TGATGGGCAT | 1.01 ± 0.018
TGATGGTGCC | 0.986 ± 0.014
TGATGGTTCA | 0.941 ± 0.077
TGATGTAATG | 1 ± 0.02
TGATGTAGAG | 0.99 ± 0.029
TGATGTATCA | 1.01 ± 0.08
TGATGTGATG | 0.995 ± 0.012
TGATGTTGGT | 0.988 ± 0.014

Sequence | switch fluorescence ratio
TGATTATAGA | 0.983 ± 0.03
TGATTATGGG | 0.9781 ± 0.0063
TGATTATGTT | 1.04 ± 0.035
TGATTCCGCA | 3.07 ± 0.12
TGATTCGGTT | 1.037 ± 0.0089
TGATTCTAGC | 0.972 ± 0.011
TGATTCTTAT | 0.97 ± 0.014
TGATTGGATG | 0.9855 ± 0.007
TGATTTAACC | 1.05 ± 0.021
TGATTTCCAT | 0.9996 ± 0.0064
TGATTTGACC | 1.03 ± 0.051
TGATTTGGGG | 0.9675 ± 0.0076
TGATTTTGGA | 0.974 ± 0.012
TGATTTTGGC | 1.01 ± 0.017
TGCAAAAGAG | 1.01 ± 0.062
TGCAAGGCGC | 1.23 ± 0.24
TGCAAGTTCG | 0.9694 ± 0.0095
TGCAATTGGG | 1.08 ± 0.022
TGCAATTTGT | 1 ± 0.078
TGCACAGTCG | 1.01 ± 0.036
TGCACCGAGT | 1.04 ± 0.018
TGCAGAAATT | 0.98 ± 0.059
TGCAGAGCAC | 1.01 ± 0.028
TGCAGAGGGC | 1.03 ± 0.02
TGCAGGCAAG | 1.01 ± 0.024

— the supplement of paper PMC10126150
